Source: paper PMC6515530, “Characterization and Dye Decolorization Potential of Two Laccases from the Marine-Derived Fungus Pestalotiopsis sp” (International Journal of Molecular Sciences, 2019)

How the values were obtained:
Assay in all cases: purified protein
[1] = system: T1, COc1cc(C=NN=Cc2cc(OC)c(O)c(OC)c2)cc(OC)c1O; format: biochemical, Pestalotiopsis sp. KF079; conditions: pH 5, 30 °C
T1 construct: secreted by Aspergillus niger D15#26, purified

[2] = system: COc1cc(-c2ccc(N)c(OC)c2)ccc1N; conditions: pH 5, 30 °C
[3] = system: CCn1c(=NN=c2sc3cc(S(=O)(=O)O)ccc3n2CC)sc2cc(S(=O)(=O)O)ccc21; conditions: pH 4, 30 °C

| Substance | Km [1] [µM] | kcat [1] [s⁻¹] | kcat/Km [1] [M⁻¹ s⁻¹] | Km [2] [µM] | kcat [2] [s⁻¹] | kcat/Km [2] [M⁻¹ s⁻¹] | Km [3] [µM] | kcat [3] [s⁻¹] | kcat/Km [3] [M⁻¹ s⁻¹] |
| --- | --- | --- | --- | --- | --- | --- | --- | --- | --- |
| PsLac1 (Pestalotiopsis sp.) | 4 | 0.365 | 82900 | 647 | 0.057 | 89 | 24 | 0.696 | 29200 |
| PsLac2 (Pestalotiopsis sp.) | 101 | 0.573 | 5670 | 144 | 0.748 | 5190 | 100 | 0.431 | 4330 |
